No end group written: not given here.
Molecular target: T1, rOT7T175 (Rattus norvegicus, UniProt Q924U1)
T1 construct: expressed in transfected cells
Experiment: Measurement of intracellular Ca ion concentration-increasing activity using FLIPR
Type: cell-based
Details: rOT7T175-23 cells; final peptide concentration 1×10^−5 M to 1×10^−10 M
Experimental: The stable expression cell line rOT7T175 was obtained by transduction of expression plasmid pAK-rOT175 for animal cell into CHO/dhfr^− cells, using CellPhect Transfection Kit (Amersham Pharmacia Biotech, Inc.). First, […] of Buffer A (attached to CellPhect Transfection Kit) was added to […] of plasmid DNA dissolved in […] of distilled water followed by stirring. After the mixture was settled for 10 minutes, […] of Buffer B (attached to CellPhect Transfection Kit) was added to the mixture, which was vigorously stirred to form liposomes containing the DNA. Then 4×10^5 CHO/dhfr^− cells (obtained from ATCC) were inoculated on a 60 mm Petri dish. After culturing the cells in Ham's F-12 medium (Nissui Seiyaku Co., Ltd.) supplemented with 10% fetal bovine serum (BIO WHITTAKER, Inc.) at 37° C. for 2 days in 5% carbon dioxide gas, […] of the liposomes were dropwise added to the cells in the Petri dish. After culturing the cells at 37° C. for 6 hours in 5% carbon dioxide gas, the cells were washed twice with serum-free Ham's F-12 medium and 3 ml of 15% glycerol was added to the cells in the Petri dish followed by treatment for 2 minutes. […]
The intracellular Ca ion concentration-increasing activity of the synthetic peptides obtained in (1-1) described above in rOT7T175-23 and ETA24was determined, using FLIPR (Molecular Devices, Inc.). […]

T1 sequence (Q924U1 whole entry R383V): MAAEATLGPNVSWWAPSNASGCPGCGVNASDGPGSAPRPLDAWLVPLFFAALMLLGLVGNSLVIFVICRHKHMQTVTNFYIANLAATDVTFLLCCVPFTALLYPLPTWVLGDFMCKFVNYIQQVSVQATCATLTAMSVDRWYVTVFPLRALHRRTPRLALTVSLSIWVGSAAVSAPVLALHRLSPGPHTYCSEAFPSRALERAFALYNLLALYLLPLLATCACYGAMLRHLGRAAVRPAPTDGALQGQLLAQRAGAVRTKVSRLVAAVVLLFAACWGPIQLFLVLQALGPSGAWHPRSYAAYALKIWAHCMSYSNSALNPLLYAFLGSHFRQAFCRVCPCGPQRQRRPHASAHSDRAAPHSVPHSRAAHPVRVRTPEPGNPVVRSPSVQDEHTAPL

PEPTIDE (40-54): C-terminal peptide of PEPTIDE (1-54), residues 40-54, synthesized on p-methyl BHA resin (KDLPNYNWNSFGLRF-NH2)
intracellular Ca ion concentration-increasing activity, comparison of dose response curves (FIG. 9): highest activity
